Measured values published in paper PMC10284700.

Target: wild-type full-length human FGFR1c, P11362
Assay: proximity ligation assay (PLA) on L6 cells
Details: chain shown with the change; L6-FGFR1cWT cells cotreated with FGF23ΔHBS and soluble αKlotho; n = 6 microscope fields, mean ± SD; parent: est. 2.3; read off a plot

Sequence of wild-type full-length human FGFR1c, P11362 (P11362 22-822): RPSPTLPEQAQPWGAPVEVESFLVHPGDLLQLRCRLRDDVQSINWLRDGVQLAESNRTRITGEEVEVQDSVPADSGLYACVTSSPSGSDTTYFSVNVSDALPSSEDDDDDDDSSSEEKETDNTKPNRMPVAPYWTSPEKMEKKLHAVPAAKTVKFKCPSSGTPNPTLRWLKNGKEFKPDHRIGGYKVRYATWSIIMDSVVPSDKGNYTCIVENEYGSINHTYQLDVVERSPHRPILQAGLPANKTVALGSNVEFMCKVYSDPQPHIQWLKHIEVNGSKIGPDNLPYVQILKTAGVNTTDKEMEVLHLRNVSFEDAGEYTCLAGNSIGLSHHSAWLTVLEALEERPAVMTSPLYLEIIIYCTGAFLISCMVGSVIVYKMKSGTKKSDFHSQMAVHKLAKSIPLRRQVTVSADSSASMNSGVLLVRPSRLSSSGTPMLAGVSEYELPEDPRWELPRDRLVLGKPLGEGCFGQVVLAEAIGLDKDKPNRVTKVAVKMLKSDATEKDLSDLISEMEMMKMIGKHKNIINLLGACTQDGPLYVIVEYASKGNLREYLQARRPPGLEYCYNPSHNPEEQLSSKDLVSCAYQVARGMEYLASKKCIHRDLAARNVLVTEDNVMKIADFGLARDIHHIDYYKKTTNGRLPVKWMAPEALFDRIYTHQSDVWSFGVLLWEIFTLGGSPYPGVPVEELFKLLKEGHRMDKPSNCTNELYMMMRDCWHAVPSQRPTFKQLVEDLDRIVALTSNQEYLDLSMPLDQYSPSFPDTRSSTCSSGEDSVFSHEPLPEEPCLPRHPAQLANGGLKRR

- response (positive point/cell number): 1.2
B1: full-length mature human FGF23 (residues Tyr25 to Ile251), Q9GZV9 R48A; R140A (protein)
chain: MLGARLRLWVCALCSVCSMSVLRAYPNASPLLGSSWGGLIHLYTATAANSYHLQIHKNGHVDGAPHQTIYSALMIRSEDAGFVVITGVMSRRYLCMDFRGNIFGSHYFDPENCRFQHQTLENGYDVYHSPQYHFLVSLGAAKRAFLPGMNPPPYSQFLSRRNEIPLIHFNTPIPRRHTRSAEDDSERDPLNVLKPRARMTPAPASCSQELPSAEDNSPMASDPLGVVRGGRVNTHAGGTGPEGCRPFAKFI
